Source: patent publication US20050282743A1, “Molecular interactions in cells” (Arbor Vita Corporation, priority 2001, published 2005)
Blank lines part the entries; values can stand above or below the substance they belong to. Ends that are not written are not given here. * marks the point of attachment. Biotin = O=C1N[C@H]2[C@H](CS[C@H]2CCCCC(=O)*)N1

What was measured:
Test in all cases: G' assay (10 uM PL peptide), results of TABLE 7 and TABLE 12
Assay type in all cases: binding
[1] = biological target: T1, PDZ protein (GST-PDZ fusion) (Homo sapiens, UniProt Q02410)
T1 construct: made in house; host or cells: E. coli (DH5alpha, BL21 or JM109)
T1 sequence (Q02410 1-837): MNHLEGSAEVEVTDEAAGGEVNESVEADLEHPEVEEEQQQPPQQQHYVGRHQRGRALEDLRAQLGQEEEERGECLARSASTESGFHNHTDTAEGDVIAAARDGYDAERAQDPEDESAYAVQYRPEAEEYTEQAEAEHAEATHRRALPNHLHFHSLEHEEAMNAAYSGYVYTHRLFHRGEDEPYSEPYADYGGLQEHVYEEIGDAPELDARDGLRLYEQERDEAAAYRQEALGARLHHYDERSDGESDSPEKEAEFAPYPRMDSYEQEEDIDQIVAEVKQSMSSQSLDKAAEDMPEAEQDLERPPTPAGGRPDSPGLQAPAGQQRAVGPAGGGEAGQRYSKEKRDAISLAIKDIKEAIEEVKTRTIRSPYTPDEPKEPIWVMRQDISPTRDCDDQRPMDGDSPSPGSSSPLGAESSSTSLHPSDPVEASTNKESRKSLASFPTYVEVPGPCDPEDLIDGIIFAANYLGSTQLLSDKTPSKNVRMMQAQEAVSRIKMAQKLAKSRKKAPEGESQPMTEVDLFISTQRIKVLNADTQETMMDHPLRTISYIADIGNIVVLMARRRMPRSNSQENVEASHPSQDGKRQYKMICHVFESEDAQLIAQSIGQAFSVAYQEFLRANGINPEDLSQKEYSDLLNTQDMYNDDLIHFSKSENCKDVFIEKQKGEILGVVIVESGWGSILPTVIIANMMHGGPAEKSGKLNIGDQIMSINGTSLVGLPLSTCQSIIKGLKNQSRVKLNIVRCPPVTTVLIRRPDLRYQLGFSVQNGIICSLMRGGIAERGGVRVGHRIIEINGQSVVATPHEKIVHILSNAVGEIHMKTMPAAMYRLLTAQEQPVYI
Summary of the method: (§1)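 Same steps as the G-zero format, apart from a peptide concentration of 10 uM in place of 20 uM in step 2. Amino-terminally biotinylated PL peptides bind GST-PDZ fusions, and retained peptide is quantified by 450 nm absorbance.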

[2] = biological target: T2, PDZ protein (GST-PDZ fusion) (Homo sapiens, UniProt Q12959); conditions: PDZ DLG1, PDZ Domain 1, 2
T2 construct: made in house; host or cells: E. coli (DH5alpha, BL21 or JM109)
Summary of the method: as §1

[3] = biological target: T3, PDZ protein (GST-PDZ fusion) (Homo sapiens, UniProt Q6P0Q8)
T3 construct: made in house; host or cells: E. coli (DH5alpha, BL21 or JM109)
Summary of the method: as §1

[4] = biological target: T4, PDZ protein (GST-PDZ fusion) (Homo sapiens, UniProt Q5T2W1); conditions: PDZ PDZK1, PDZ Domain 2, 3, 4
T4 construct: made in house; host or cells: E. coli (DH5alpha, BL21 or JM109)
T4 sequence (Q5T2W1 1-519): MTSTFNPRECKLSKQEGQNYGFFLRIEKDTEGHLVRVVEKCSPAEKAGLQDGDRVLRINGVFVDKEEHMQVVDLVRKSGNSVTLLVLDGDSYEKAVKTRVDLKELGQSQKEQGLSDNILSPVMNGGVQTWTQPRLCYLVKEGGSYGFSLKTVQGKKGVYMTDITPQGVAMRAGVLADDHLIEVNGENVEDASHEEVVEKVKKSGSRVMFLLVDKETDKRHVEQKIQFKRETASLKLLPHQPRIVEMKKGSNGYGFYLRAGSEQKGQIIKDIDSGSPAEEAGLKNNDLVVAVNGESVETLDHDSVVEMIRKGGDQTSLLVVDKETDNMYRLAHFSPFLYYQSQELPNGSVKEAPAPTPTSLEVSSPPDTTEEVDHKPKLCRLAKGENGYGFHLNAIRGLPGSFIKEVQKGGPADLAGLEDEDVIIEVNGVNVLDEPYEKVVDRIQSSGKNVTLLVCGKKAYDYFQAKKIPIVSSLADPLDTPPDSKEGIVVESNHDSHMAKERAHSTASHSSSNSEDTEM
Summary of the method: as §1

[5] = test system: PDZ protein (GST-PDZ fusion)
Summary of the method: as §1

[6] = biological target: T5, PDZ protein (GST-PDZ fusion) (Homo sapiens, UniProt O15085); conditions: PDZ KIAA0380, PDZ Domain 1
T5 construct: made in house; host or cells: E. coli (DH5alpha, BL21 or JM109)
Summary of the method: as §1

[7] = biological target: T6, PDZ protein (GST-PDZ fusion) (Homo sapiens, UniProt O15018); conditions: PDZ AIPC, PDZ Domain 1
T6 construct: made in house; host or cells: E. coli (DH5alpha, BL21 or JM109)
Summary of the method: as §1

[8] = biological target: T7, PDZ protein (GST-PDZ fusion) (Homo sapiens, UniProt Q9Y2H9); conditions: PDZ KIAA0973, PDZ Domain 1
T7 construct: made in house; host or cells: E. coli (DH5alpha, BL21 or JM109)
Summary of the method: as §1

[9] = biological target: T8, PDZ protein (GST-PDZ fusion) (Homo sapiens, UniProt Q13796); conditions: PDZ hAPXL, PDZ Domain 1
T8 construct: made in house; host or cells: E. coli (DH5alpha, BL21 or JM109)
Summary of the method: as §1

[10] = biological target: T9, PDZ protein (GST-PDZ fusion) (Homo sapiens, UniProt Q07157)
T9 construct: made in house; host or cells: E. coli (DH5alpha, BL21 or JM109)
Summary of the method: as §1

[11] = biological target: T10, PDZ protein (GST-PDZ fusion) (Homo sapiens, UniProt Q9UDY2); conditions: PDZ ZO-2, PDZ Domain 2
T10 construct: made in house; host or cells: E. coli (DH5alpha, BL21 or JM109)
T10 sequence (Q9UDY2 1-1190): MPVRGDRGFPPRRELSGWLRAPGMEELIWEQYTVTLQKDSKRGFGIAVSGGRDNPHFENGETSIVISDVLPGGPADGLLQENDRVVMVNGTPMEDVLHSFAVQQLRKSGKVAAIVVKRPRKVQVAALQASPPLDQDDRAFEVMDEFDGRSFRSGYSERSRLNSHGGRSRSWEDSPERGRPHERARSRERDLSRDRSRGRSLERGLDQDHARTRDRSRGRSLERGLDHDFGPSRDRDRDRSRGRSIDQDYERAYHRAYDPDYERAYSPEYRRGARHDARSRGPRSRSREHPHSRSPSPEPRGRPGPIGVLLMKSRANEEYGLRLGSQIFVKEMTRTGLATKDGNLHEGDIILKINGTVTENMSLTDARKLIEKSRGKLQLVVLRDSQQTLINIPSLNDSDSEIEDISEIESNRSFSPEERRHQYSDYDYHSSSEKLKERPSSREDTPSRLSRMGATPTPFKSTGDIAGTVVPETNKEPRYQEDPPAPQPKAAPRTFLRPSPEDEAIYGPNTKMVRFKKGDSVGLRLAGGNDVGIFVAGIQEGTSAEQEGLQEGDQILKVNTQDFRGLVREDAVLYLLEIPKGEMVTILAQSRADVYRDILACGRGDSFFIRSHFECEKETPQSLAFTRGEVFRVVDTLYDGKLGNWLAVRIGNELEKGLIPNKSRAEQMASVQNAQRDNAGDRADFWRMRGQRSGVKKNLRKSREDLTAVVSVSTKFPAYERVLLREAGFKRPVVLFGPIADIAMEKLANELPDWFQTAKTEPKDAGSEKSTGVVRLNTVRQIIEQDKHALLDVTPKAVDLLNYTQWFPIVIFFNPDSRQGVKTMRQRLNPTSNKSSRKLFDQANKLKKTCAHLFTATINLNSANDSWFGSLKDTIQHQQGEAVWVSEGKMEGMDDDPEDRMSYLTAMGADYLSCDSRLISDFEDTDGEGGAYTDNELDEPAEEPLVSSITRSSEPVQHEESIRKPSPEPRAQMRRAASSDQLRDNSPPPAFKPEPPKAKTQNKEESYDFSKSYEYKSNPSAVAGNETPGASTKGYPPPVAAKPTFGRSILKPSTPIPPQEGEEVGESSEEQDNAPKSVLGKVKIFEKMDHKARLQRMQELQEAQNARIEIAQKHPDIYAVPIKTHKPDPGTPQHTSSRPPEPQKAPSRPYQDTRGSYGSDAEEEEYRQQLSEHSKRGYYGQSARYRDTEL
Summary of the method: as §1

[12] = biological target: T11, PDZ protein (GST-PDZ fusion) (Homo sapiens, UniProt Q9P202); conditions: PDZ KIAA1526, PDZ Domain 1
T11 construct: made in house; host or cells: E. coli (DH5alpha, BL21 or JM109)
T11 sequence (Q9P202 1-907): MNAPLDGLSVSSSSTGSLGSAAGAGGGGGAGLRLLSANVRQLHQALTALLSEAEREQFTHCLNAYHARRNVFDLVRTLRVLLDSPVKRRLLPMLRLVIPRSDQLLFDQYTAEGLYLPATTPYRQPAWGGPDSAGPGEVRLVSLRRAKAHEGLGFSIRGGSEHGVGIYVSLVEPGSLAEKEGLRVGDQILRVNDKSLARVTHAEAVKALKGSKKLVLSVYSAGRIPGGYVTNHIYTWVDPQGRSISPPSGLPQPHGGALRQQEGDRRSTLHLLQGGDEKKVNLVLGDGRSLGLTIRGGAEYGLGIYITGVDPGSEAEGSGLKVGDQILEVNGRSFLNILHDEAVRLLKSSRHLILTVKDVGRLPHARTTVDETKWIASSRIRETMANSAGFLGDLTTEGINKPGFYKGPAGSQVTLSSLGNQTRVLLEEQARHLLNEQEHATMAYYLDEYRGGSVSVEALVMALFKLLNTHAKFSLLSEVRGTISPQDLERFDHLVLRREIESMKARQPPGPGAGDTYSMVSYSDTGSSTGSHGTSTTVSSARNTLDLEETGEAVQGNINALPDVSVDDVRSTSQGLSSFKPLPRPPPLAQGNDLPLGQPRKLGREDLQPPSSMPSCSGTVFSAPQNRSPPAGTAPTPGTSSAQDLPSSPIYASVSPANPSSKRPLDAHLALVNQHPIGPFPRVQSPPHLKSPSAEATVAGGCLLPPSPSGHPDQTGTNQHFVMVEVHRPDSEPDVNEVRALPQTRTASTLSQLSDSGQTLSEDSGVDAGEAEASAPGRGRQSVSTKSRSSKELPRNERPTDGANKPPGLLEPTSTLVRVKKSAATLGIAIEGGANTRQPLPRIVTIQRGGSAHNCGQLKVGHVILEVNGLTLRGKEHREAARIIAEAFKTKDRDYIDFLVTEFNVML
Summary of the method: as §1

[13] = biological target: T12, PDZ protein (GST-PDZ fusion) (Homo sapiens, UniProt Q8NI35); conditions: PDZ INADL, PDZ Domain 8
T12 construct: made in house; host or cells: E. coli (DH5alpha, BL21 or JM109)
Summary of the method: as §1

[14] = biological target: T13, PDZ protein (GST-PDZ fusion) (Homo sapiens, UniProt O75970); conditions: PDZ MUPP-1, PDZ Domain 10
T13 construct: made in house; host or cells: E. coli (DH5alpha, BL21 or JM109)
Summary of the method: as §1

[15] = biological target: T14, PDZ protein (GST-PDZ fusion) (Homo sapiens, UniProt P50479); conditions: PDZ LIM RIL, PDZ Domain 1
T14 construct: made in house; host or cells: E. coli (DH5alpha, BL21 or JM109)
T14 sequence (P50479 1-330): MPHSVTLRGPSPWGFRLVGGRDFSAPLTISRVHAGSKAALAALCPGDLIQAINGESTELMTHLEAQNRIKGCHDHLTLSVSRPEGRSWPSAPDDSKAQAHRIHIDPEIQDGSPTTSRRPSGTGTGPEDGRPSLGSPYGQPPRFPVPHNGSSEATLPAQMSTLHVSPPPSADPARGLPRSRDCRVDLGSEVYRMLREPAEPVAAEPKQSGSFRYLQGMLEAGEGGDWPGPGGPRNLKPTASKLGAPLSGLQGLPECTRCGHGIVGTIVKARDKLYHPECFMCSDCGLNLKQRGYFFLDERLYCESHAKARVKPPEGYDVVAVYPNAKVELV
Summary of the method: as §1

T3 sequence (Q6P0Q8 whole entry, the tested form may be a part): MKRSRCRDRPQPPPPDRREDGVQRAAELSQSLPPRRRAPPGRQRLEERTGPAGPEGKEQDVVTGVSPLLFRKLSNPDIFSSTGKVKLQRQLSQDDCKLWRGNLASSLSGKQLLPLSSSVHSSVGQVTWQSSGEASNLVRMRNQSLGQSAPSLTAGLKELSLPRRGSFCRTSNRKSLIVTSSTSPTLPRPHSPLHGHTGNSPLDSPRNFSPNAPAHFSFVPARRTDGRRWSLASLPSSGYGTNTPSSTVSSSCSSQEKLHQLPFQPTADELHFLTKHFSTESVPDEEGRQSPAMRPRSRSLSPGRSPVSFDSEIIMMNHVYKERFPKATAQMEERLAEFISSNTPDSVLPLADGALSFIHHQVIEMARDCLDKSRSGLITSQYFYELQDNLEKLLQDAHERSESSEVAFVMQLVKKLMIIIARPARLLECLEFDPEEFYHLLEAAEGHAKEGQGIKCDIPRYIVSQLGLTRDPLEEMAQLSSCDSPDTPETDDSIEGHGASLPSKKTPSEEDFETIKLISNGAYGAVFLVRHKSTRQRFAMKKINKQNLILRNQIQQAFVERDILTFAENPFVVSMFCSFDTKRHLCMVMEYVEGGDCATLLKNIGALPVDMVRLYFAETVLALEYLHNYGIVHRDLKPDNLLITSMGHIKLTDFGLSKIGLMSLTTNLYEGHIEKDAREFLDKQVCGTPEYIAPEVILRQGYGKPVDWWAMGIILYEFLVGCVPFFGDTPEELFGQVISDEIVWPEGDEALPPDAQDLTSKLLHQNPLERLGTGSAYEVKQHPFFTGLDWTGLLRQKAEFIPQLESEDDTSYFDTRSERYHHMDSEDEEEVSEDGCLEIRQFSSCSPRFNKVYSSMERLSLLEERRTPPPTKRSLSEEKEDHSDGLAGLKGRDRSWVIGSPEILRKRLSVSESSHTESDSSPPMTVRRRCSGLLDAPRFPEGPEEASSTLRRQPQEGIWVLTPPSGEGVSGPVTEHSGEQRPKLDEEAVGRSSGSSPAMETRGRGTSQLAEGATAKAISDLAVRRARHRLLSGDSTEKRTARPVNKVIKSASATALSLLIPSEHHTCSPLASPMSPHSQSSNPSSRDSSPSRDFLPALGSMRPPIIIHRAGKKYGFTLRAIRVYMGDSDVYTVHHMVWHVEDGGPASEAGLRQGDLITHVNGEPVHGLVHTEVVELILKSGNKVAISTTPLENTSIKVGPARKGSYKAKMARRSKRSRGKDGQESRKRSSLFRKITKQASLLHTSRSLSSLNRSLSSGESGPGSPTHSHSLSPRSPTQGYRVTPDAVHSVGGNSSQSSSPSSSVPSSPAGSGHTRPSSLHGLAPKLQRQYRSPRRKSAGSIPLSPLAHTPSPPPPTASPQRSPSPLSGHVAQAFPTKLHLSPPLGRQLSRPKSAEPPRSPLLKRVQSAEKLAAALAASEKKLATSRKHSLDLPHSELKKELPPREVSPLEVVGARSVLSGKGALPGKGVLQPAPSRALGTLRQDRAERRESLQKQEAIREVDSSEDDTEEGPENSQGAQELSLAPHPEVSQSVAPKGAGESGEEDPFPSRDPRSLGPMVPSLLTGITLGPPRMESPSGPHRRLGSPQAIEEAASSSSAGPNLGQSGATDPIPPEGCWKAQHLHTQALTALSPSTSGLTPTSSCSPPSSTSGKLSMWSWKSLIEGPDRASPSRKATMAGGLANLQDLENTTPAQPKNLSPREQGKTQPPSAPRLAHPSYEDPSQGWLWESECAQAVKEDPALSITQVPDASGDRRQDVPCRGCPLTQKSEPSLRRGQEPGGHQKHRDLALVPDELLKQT
T9 sequence (Q07157 whole entry, the tested form may be a part): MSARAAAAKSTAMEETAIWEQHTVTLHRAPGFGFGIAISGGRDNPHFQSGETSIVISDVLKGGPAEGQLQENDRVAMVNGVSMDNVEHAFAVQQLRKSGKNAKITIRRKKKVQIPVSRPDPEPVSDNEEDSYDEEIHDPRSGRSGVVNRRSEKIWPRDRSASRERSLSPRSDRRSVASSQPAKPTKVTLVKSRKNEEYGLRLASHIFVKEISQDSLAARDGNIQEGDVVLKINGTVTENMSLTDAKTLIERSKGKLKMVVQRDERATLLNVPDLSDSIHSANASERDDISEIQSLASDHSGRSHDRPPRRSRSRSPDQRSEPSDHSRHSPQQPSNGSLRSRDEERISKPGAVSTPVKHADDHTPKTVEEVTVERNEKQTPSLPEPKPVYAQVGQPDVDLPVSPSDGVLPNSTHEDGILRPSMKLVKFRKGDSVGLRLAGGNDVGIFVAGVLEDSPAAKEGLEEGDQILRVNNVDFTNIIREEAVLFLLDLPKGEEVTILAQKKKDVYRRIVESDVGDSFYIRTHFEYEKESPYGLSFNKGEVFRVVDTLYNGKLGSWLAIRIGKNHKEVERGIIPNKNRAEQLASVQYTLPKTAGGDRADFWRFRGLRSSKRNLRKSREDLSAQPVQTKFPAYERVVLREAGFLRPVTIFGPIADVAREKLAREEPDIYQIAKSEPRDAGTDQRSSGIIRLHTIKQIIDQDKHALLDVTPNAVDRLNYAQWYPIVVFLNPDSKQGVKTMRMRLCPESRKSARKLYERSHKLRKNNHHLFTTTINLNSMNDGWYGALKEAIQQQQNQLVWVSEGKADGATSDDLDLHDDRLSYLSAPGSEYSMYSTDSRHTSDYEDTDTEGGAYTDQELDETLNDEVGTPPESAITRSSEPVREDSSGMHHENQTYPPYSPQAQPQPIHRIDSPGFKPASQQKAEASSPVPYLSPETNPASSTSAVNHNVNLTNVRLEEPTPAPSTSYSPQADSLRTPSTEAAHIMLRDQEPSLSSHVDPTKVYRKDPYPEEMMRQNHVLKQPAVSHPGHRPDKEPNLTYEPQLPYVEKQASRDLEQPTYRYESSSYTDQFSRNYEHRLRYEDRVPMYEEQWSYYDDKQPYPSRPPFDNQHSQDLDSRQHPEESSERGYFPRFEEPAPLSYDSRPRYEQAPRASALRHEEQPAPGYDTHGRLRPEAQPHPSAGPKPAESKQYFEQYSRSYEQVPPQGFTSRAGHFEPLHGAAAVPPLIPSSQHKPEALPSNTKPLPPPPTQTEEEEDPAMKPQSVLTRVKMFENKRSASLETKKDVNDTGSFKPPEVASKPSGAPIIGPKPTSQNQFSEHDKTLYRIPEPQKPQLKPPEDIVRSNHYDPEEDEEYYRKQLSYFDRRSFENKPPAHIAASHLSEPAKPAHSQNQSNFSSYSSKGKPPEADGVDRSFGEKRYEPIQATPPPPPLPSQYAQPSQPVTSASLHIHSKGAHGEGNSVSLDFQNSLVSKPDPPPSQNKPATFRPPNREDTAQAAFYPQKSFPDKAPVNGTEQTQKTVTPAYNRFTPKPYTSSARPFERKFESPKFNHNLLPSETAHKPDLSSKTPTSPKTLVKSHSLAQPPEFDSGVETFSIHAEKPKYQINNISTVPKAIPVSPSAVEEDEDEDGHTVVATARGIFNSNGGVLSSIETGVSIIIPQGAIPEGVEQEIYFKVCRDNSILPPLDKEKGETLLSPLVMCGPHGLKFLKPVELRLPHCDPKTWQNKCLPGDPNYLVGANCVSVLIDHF
T5 sequence (O15085 whole entry, the tested form may be a part): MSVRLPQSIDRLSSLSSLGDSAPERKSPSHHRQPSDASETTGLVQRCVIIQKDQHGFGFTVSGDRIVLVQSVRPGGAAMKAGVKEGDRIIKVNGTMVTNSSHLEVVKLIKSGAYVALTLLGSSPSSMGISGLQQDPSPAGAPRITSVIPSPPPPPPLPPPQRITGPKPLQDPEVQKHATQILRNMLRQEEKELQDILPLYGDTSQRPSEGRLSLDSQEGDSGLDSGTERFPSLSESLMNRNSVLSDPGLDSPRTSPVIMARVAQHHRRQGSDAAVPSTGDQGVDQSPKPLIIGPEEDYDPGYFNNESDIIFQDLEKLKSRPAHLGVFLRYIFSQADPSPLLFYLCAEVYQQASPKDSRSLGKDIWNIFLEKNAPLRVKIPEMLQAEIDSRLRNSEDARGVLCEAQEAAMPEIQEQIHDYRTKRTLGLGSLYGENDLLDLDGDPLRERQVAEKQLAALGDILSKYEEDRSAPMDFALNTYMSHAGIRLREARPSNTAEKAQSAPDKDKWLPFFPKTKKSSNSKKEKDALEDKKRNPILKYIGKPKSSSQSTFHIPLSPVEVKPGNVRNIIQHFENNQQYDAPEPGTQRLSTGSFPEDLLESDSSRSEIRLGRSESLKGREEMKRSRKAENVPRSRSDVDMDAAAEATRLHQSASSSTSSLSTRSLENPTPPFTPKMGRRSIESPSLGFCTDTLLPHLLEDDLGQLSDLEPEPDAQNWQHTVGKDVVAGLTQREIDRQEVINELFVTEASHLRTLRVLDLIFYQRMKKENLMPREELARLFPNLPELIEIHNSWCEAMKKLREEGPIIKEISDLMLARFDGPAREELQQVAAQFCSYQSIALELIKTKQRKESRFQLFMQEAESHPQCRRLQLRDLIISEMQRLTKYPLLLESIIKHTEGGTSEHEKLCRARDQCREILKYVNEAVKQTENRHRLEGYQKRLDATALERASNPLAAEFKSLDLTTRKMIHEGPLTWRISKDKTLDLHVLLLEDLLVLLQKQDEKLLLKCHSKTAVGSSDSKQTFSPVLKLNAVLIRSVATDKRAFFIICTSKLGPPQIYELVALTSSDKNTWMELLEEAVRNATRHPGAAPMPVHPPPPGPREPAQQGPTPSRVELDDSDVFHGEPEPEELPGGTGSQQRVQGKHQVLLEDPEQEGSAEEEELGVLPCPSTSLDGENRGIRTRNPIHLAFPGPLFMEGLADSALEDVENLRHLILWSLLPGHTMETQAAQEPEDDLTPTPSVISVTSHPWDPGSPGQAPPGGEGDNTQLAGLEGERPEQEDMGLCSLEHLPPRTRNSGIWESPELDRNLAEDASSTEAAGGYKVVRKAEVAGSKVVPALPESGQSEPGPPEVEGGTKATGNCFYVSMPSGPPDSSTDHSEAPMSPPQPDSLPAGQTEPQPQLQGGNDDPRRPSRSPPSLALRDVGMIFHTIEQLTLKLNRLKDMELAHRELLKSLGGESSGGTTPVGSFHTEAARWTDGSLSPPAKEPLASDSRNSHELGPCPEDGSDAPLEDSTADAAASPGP

Substance: SSR4_HUMAN (EALQPEPGRKRIPLTRTTTF)
Classification ([1]; PDZ Mint 1, PDZ Domain 1, 2): 1 (A450 nm 0-1) | Classification [2]: 1 (A450 nm 0-1) | Classification ([3]; PDZ KIAA807): 1 (A450 nm 0-1) | Classification [4]: 1 (A450 nm 0-1) | Classification ([5]; PDZ BAI-1, PDZ Domain 4): 1 (A450 nm 0-1) | Classification ([5]; PDZ BAI-1, PDZ Domain 5): 1 (A450 nm 0-1)

Substance: SSKSKSSEESQTFFGLYKL (Biotin-SSKSKSSEESQTFFGLYKL) [Fas Ligand]
Classification ([1]; PDZ Mint 1, PDZ Domain 1, 2): 4 (A450 nm 3-4) | Classification [6]: 3 (A450 nm 2-3) | Classification [7]: 2 (A450 nm 1-2) | Classification [8]: 2 (A450 nm 1-2) | Classification ([3]; PDZ KIAA807): 5 (A450 nm of 4 more than 2× repeated) | Classification ([3]; PDZ KIAA0807(S), PDZ Domain 1): 5 (A450 nm of 4 more than 2× repeated) | Classification [9]: 2 (A450 nm 1-2)

Substance: PSSRASSRASSRPRPDDLEI (Biotin-PSSRASSRASSRPRPDDLEI) [CX43]
Classification ([10]; PDZ ZO-1, PDZ Domain 2): 2 (A450 nm 1-2) | Classification [11]: 1 (A450 nm 0-1) | PDZ proteins bound by the PL (TABLE 7) ([5]; as cited in the text from TABLE 7): ZO-2 and ZO-1

Second part, the substance after the results:

Classification [12]: 1 (A450 nm 0-1) | Classification ([10]; PDZ ZO-1, PDZ Domain 1): 1 (A450 nm 0-1) | Classification ([10]; PDZ ZO-1, PDZ Domain 2): 1 (A450 nm 0-1) | Classification [11]: 1 (A450 nm 0-1)
Substance: TEGNESSEATSPVNAIYSLA (Biotin-TEGNESSEATSPVNAIYSLA) [neurofascin (chicken)]

Classification [13]: 1 (A450 nm 0-1) | Classification ([1]; PDZ Mint 1, PDZ Domain 2): 1 (A450 nm 0-1) | Classification [14]: 1 (A450 nm 0-1) | Classification [15]: 1 (A450 nm 0-1)
Substance: INSVGSTASSSQPLLVHDDV (Biotin-INSVGSTASSSQPLLVHDDV) [c-kit receptor]
